Measurements from article doi:10.1101/2024.04.02.587845.

How the values were obtained:
[1] = target: GST-YFP-6His-PANT^R20A (Arabidopsis); test: MST
[2] = target: GST-YFP-6His-PANT^WT (PANT domain of Arabidopsis SRFR1) (Arabidopsis); test: MST

Kd [1]: 956 µM | Kd [2]: 395 µM
Substance: synthetic P1 peptide (P1 segment of IDR1 of SRFR1)
